Reference: patent publication US20130053541A1, “METHODS FOR DISCOVERING MOLECULES THAT BIND TO PROTEINS” (LYNNTECH, INC., priority 2011, published 2013)
Where no end group is shown, it is not given here.

T1: native human ESRRG protein (Homo sapiens, UniProt P62508)
T1 sequence (P62508 1-458): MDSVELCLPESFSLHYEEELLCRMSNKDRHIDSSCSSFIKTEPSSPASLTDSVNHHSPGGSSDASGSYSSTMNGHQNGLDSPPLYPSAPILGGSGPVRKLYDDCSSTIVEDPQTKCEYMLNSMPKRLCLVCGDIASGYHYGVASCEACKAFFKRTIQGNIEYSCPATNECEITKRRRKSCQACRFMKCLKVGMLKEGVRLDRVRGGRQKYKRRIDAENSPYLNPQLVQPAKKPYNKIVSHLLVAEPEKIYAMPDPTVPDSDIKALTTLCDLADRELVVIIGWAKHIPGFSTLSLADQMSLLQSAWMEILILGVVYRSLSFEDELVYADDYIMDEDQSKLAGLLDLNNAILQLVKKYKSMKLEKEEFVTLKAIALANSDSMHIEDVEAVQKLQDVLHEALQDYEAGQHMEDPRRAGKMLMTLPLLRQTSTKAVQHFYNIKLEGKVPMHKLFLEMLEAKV

T2: native human ESRRG protein (Estrogen-receptor related receptor gamma) (human, UniProt P62508 229-458, limits assumed)
T2 construct: the screened protein is called 'native human ESRRG protein'; also called ESSRG; ERRγ
T2 sequence (looked up): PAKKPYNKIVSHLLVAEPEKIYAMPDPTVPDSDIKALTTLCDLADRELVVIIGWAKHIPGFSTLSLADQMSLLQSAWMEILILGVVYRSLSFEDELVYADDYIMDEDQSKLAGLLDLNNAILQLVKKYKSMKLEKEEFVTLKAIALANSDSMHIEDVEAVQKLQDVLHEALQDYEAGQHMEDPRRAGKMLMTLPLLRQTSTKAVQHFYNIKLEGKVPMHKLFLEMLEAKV


Assays:
[1] = molecular target: T1, native human ESRRG protein; assay: peptide microarray screening for ESRRG binding (Iteration 1 and 2); settings: for Sample A (Bkgd) Signal / Sample B (Probe) Signal: fluorescence intensity units
Text: The BLOSUM62 matrix was divided into Tiers based, with Tier 1 comprising “most conserved” (lowest penalty) and Tier 3 comprising “least conserved” (highest penalty) mutations observed in nature. Sequences for microarray production for the primary stage (Iteration 1) of screening for protein binding were created by permuting AA positions 4 and/or 5 only (i.e., core of sequence) of parent 8-mer peptides using Tier 1 and Tier 3 substitutions. This allows the systematic variation of the sequence in order to identify the most important motif within the larger candidate ligand sequence that is needed for binding the target protein. All peptides on the array were grown from the C→N terminal, with the exposed N-terminal amino acid masked by an acetyl group to prevent folding of the sequence and enable full presentation of the peptide to its target protein.
(§1) Screening was carried out typically by hybridization of the protein (1 μg/mL) against the array for 1 h at 4° C.; detection of bound protein was carried out using a fluorescently labeled anti-ESRRG mAb. (Direct labeling of ESRRG and alternative detection strategies are equally valid).
Highest binders (based on relative fluorescence signal) were selected and iteratively sequence expanded and arrayed (Iteration 2); and ESRRG binding sequences were selected as above. For iterative arrays, the core positions (AA 4 and 5) were kept unchanged while the outer amino acids (2, 3, 6, and/or 7) were permuted using Tier 3 substitutions.
Daughter candidate ligands and their new Tier 3 and/or Tier 1 based combinations were synthesized in situ on an addressable peptide microarray and screened against native human ESRRG protein in order to determine sequences that bind to this protein. Bound protein was detected by a fluorescently labeled anti-ESRRG mAb. Results are obtained in fluorescence intensity units which were used to rank the peptide ligands. Excess (100×) competing biological matrices (human serum, HSA/BSA or bacterial protein extract) were used as backgrounds to select for specific ligands to the protein. Other competing proteins can be added to background for specificity selection and directed evolution of ligands.
Iterative sequence expansion and arraying of 10 highest binding ligands to ESRRG from Iteration 1 was carried out and the new peptide sequences were synthesized on an array and screened against the protein, as described above. In this step, the central 2 amino acids (core) in peptide sequences were maintained unchanged while outlying amino acids (2, 3, 6, and 7) were permuted (using Tier 1 and Tier 3 substitutions) in a ‘cipher’ or ‘combination’ lock approach. Further affinity maturation of sequence was observed, with multifold enhancement in binding signal of Iteration 2 sequences (i.e., Granddaughters) compared to their respective parents from Iteration 1 (i.e., Daughters) on the same array.

[2] = molecular target: T2, native human ESRRG protein …; assay: peptide microarray, Iteration 2; bound ESRRG detected with fluorescent anti-ESRRG mAb
Procedure: as §1
Iterative sequence expansion and arraying of 10 highest binding ligands to ESRRG from Iteration 1 was carried out and the new peptide sequences were synthesized on an array and screened against the protein, as described above. In this step, the central 2 amino acids (core) in peptide sequences were maintained unchanged while outlying amino acids (2, 3, 6, and 7) were permuted (using Tier 1 and Tier 3 substitutions) in a ‘cipher’ or ‘combination’ lock approach.

Sample B (Probe) Signal [2]	log2 (Sample B/Sample A) [2]	Molecule	also measured
–	–	WIKLKQND	Sample A (Bkgd) Signal ([1]; Iteration 2 iterative screen): 181.65; Sample B (Probe) Signal ([1]; Iteration 2 iterative screen): 2,343.96
–	–	ANNLWLLH	Sample A (Bkgd) Signal ([1]; Iteration 1 primary screen): 41.92; Sample B (Probe) Signal ([1]; Iteration 1 primary screen): 1,606.54
–	–	ANNSQLLH	Sample A (Bkgd) Signal ([1]; Iteration 1 primary screen): 1.00
–	–	RKALVGKY	Sample A (Bkgd) Signal ([1]; Iteration 1 primary screen): 28.08
–	–	RLLHYGSY	Sample A (Bkgd) Signal ([1]; Iteration 2 iterative screen): 290.67; Sample B (Probe) Signal ([1]; Iteration 2 iterative screen): 1,203.13
–	–	Ac-LYLLKHHP-NH2 (C-terminus assumed)	log2 (Sample B/Sample A) ([1]; Iteration 2 iterative screen): 3.05; Sample A (Bkgd) Signal ([1]; Iteration 2 iterative screen): 304.92; Sample B (Probe) Signal ([1]; Iteration 2 iterative screen): 2,527.00
–	–	VLLHYGLY	Sample A (Bkgd) Signal ([1]; Iteration 2 iterative screen): 347.96; Sample B (Probe) Signal ([1]; Iteration 2 iterative screen): 1,796.19
–	–	PFKLKQGN	Sample A (Bkgd) Signal ([1]; Iteration 2 iterative screen): 1,523.23; Sample B (Probe) Signal ([1]; Iteration 2 iterative screen): 6,982.96
–	–	LHLRYSQT	Sample A (Bkgd) Signal ([1]; Iteration 1 primary screen): 33.10
–	–	LILLQQLD	Sample A (Bkgd) Signal ([1]; Iteration 2 iterative screen): 177.10; Sample B (Probe) Signal ([1]; Iteration 2 iterative screen): 1,251.12
–	–	FWKGHFDF	Sample A (Bkgd) Signal ([1]; Iteration 2 iterative screen): 230.42; Sample B (Probe) Signal ([1]; Iteration 2 iterative screen): 1,455.83
1040 fluorescence intensity units	2.66	Ac-FFNFSLPA	–
554 fluorescence intensity units	2.19	Ac-EESYPRDK	–
802 fluorescence intensity units	2.48	Ac-HNSYPRNE	–
4370 fluorescence intensity units	4.45	Ac-NNNFSLHM	–
7240 fluorescence intensity units	6.47	Ac-HDNMYLNE	–
1230 fluorescence intensity units	2.56	Ac-WGKLKQGE	–
2780 fluorescence intensity units	3.32	Ac-LFKLKQDG	–
3420 fluorescence intensity units	2.23	Ac-NNSYPRHR	–
1750 fluorescence intensity units	3.25	Ac-HLKLKQEN	–
19000 fluorescence intensity units	4.56	Ac-HRSYPRRG	–
5440 fluorescence intensity units	3.32	Ac-FFKGHFKF	–
2860 fluorescence intensity units	3.97	Ac-WANYLLPP	–

Sample B (Probe) Signal [2]	log2 (Sample B/Sample A) [2]	Molecule	also measured
5590 fluorescence intensity units	4.27	Ac-PDSYPRWG	–
2300 fluorescence intensity units	3.41	Ac-NLLLKHPD	–
2340 fluorescence intensity units	3.69	Ac-WIKLKQND	–
2200 fluorescence intensity units	2.91	Ac-WNSYPRND	–
964 fluorescence intensity units	2.34	Ac-HNNYLLNN	–
1310 fluorescence intensity units	2.45	Ac-YHNYLLHP	–
2240 fluorescence intensity units	3.84	Ac-DNNYLLLL	–
3050 fluorescence intensity units	2.46	Ac-GKSYPRHR	–
1250 fluorescence intensity units	2.82	Ac-LILLQQLD	–
4800 fluorescence intensity units	4.9	Ac-DINFSLGI	–
662 fluorescence intensity units	2.12	Ac-ALNFSLNW	–
5020 fluorescence intensity units	4.08	Ac-EDSYPRDG	–
6980 fluorescence intensity units	2.2	Ac-PFKLKQGN	–
13800 fluorescence intensity units	4.88	Ac-NFNYLLPH	–
2460 fluorescence intensity units	3.55	Ac-TGKLKQDG	–
3110 fluorescence intensity units	2.28	Ac-HFKLKQGG	–
2420 fluorescence intensity units	3.47	Ac-LFLLQQDD	–
619 fluorescence intensity units	2.42	Ac-AHNYLLEH	–
2450 fluorescence intensity units	2.31	Ac-HRSYPRVY	–
1340 fluorescence intensity units	2.76	Ac-PWKLKQDP	–
1300 fluorescence intensity units	2.97	Ac-HYKLKQHE	–
1860 fluorescence intensity units	2.34	Ac-LFKLKQND	–
775 fluorescence intensity units	2.29	Ac-FWNMYLNP	–
